Results published in article PMC5575849 (Developmental cell, 2017).

Target: the molecule itself
Assay: single-cell single-molecule pull-down

B1: mNG::AraD (mNG::3xFlag::AraD) (enzyme, E. coli, UniProt P08203 1-231, looked up)
chain: MLEDLKRQVLEANLALPKHNLVTLTWGNVSAVDRERGVFVIKPSGVDYSVMTADDMVVVSIETGEVVEGTKKPSSDTPTHRLLYQAFPSIGGIVHTHSRHATIWAQAGQSIPATGTTHADYFYGTIPCTRKMTDAEINGEYEWETGNVIVETFEKQGIDAAQMPGVLVHSHGPFAWGKNAEDAVHNAIVLEEVAYMGIFCRQLAPQLPDMQQTLLDKHYLRKHGAKAYYGQ
stoichiometry N: 4
